One experiment concerns the target T1, H-NS (Escherichia coli, UniProt P0ACF8).
T1 chain: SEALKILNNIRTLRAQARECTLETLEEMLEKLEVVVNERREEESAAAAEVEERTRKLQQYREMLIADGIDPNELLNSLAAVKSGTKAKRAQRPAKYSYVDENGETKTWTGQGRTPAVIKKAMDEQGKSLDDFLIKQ
The experiment is described as follows: fluorescence anisotropy.

Experiment [1] concerns the target Cnu (E. coli). The experiment is described as follows: other fluorescence titration; ~2 uM Cnu with ~30 nM to ~140 uM H-NS; W67 emission on excitation at 295 nm, intensity-averaged wavenumber; Hill fit; apparent; 170 mM ionic strength, sodium phosphate pH 8.0; temperatures from 5 to 37 °C.
The target of experiment [2] is H-NSW, variant of H-NS with a tryptophan at its C-terminus (E. coli) (UniProt P0ACF8). The experiment is described as follows: fluorescence polarisation; steady-state tryptophan anisotropy; 2 uM H-NSW with ~30 nM to ~140 uM H-NS (tyrosine variant); excitation 295 nm; 170 mM ionic strength, 5 °C and 37 °C; apparent; fit to monomer-dimer (1:1) equilibrium. (In general: Polarisation of emitted light reports the rotation of a fluorescent probe.)

Experiment [3] addresses Cnu (E. coli). The experiment is described as follows: other fluorescence titration; ~2 uM Cnu with ~30 nM to ~140 uM H-NS; W67 emission on excitation at 295 nm, intensity-averaged wavenumber; Hill fit; apparent; 500 mM ionic strength, sodium phosphate pH 8.0; temperatures from 5 to 37 °C.

B1: Cnu (protein)
chain: MTVQDYLLKFRKISSLESLEKLYDHLNYTLTDDQELINMYRAADHRRAELVSGGRLFDLGQVPKSVWHYVQ
B1: the Kd in the experiment with H-NS is ~125 µM.

B2: H-NS (residues 1-59 of the N-terminal domain), the tyrosine variant (domain or fragment)
chain: MSEALKILNNIRTLRAQARESTLETLEEMLEKLEVVVNERREEESAAAAEVEERTRKLY
On to B2, for which, in the experiment with Cnu (E. coli) [1], the fold increase in affinity against 500 mM IS was found to be 4 fold. In addition, in experiment [2], the Kd lay in the range of 100 to 150 µM and the minimum oligomerization concentration worked out at 10 µM. In addition, the K1/2 in the experiment with Cnu (E. coli) [3] was found to be 100 µM.

The record behind these values is publication PMC6491433 (2019).
